In US20200199244A1 one finds RU first dAb/Fab alone, Second Injection (% of single dAb/Fab RU) and Single dAb RU data, which are given here for two substances.

The target of assay [1] is biotinylated human CD40 (human) (UniProt P25942). As to the kind of experiment: SPR, BIAcore 3000, Fab injected alone over biotinylated human CD40 on SA chip.
The target is the same in assay [2]. As to the kind of experiment: SPR, BIAcore 3000 COINJECT over biotinylated human CD40; mixture after first injection; competitor G28-5 Fab. In general terms: Surface plasmon resonance follows binding to a sensor surface in real time, without labels.
Assay [3] shares this target. As to the kind of experiment: SPR, BIAcore 3000 COINJECT over biotinylated human CD40; mixture after first injection; competitor BMS3h-56-5.
Assay [4] shares this target. Description: SPR, BIAcore 3000 COINJECT over biotinylated human CD40; mixture after first injection; competitor BMS3h-193-12.
For assay [5] the target is unchanged. Description: SPR, BIAcore 3000, 1 µM Fab alone over biotinylated human CD40.
For assay [6] the target is unchanged. As to the kind of experiment: SPR, BIAcore 3000 COINJECT over biotinylated human CD40; mixture after first injection; competitor Chi220 Fab.

biotinylated human CD40 (human), sequence (P25942 21-193 limits assumed): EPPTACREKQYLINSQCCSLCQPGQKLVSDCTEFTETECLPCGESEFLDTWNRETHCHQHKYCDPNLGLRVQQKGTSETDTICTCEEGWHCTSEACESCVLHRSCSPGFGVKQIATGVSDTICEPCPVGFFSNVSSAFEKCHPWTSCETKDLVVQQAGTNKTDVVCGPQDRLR

Chi220 Fab' registered an RU first dAb/Fab alone in assay [1] of 1090 RU. For the same substance, the Second Injection (% of single dAb/Fab RU) in assay [2] came to 39%; in assay [3], 98%; in assay [4] it was 98%.

For G28-5 Fab', the Single dAb RU in assay [5] stood at 730 RU. Besides, the RU first dAb/Fab alone in assay [1] amounted to 730 RU. Moreover, the Second Injection (% of single dAb/Fab RU) in assay [3] worked out at 94%; in assay [6], 11%; in assay [4] it was 93%.
